This is an account of results in patent US20240132578A1 (published 2024).

Experiment [1] deals with T1, Recombinant gp41 generated with sequences derived from HxB2 clone of HIV-1, expressed in Pichia pastoris (HIV-1 clone HxB2, UniProt P04578 541-682).
T1 construct: domain: gp41; also called gp41HxB2
The experiment in a line: ELISA, B cell culture supernatant on directly immobilised recombinant gp41. For orientation: In an ELISA, binding on a coated surface is turned into a signal by an enzyme label.

Experiment [2] addresses HIV-1 93UG077 Env (clade A pseudovirus) (HIV-1). The experiment in a line: cell-based or functional assay.
Experiment [3] addresses HIV-1 92BR020 Env (clade B pseudovirus) (HIV-1). The experiment in a line: cell-based or functional assay.
The target in experiment [4] is HIV-1 APV-13 Env (clade B pseudovirus) (HIV-1). The experiment is described as follows: cell-based or functional assay.
Experiment [5] deals with HIV-1 JRCSF Env (clade B pseudovirus) (HIV-1, UniProt P20871 32-848). The experiment in a line: cell-based or functional assay.
The target of experiment [6] is HIV-1 APV-17 Env (clade B pseudovirus) (HIV-1). The experiment is described as follows: cell-based or functional assay.
Experiment [7] deals with HIV-1 APV-6 Env (clade B pseudovirus) (HIV-1). The experiment in a line: cell-based or functional assay.
The target in experiment [8] is HIV-1 93IN905 Env (clade C pseudovirus) (HIV-1). The experiment in a line: cell-based or functional assay.
Experiment [9] deals with HIV-1 IAVI-C18 Env (clade C pseudovirus) (HIV-1). The experiment is described as follows: cell-based or functional assay.
For experiment [10], the target named is HIV-1 IAVI-C22 Env (clade C pseudovirus) (HIV-1). The experiment is described as follows: cell-based or functional assay.
Experiment [11] has as its target HIV-1 IAVI-C3 Env (clade C pseudovirus) (HIV-1). The experiment in a line: cell-based or functional assay.
For experiment [12], the target named is HIV-1 92UG024 Env (clade D pseudovirus) (HIV-1). The experiment is described as follows: cell-based or functional assay.
The target of experiment [13] is HIV-1 92UG005 Env (clade D pseudovirus) (HIV-1). The experiment in a line: cell-based or functional assay.
Experiment [14] concerns the target HIV-1 92TH021 Env (CRF01_AE pseudovirus) (HIV-1). The experiment is described as follows: cell-based or functional assay.
Experiment [15] deals with HIV-1 CMU02 Env (CRF01_AE pseudovirus) (HIV-1). The experiment in a line: cell-based or functional assay.
Experiment [16] addresses aMLV envelope (negative control pseudovirus). The experiment in a line: cell-based or functional assay.
For experiment [17], the target named is HIV-1 94UG103 Env (clade A pseudovirus) (HIV-1). The experiment in a line: cell-based or functional assay.
Experiment [18] has as its target HIV-1 92RW020 Env (clade A pseudovirus) (HIV-1). The experiment in a line: cell-based or functional assay.
Experiment [19] deals with T2, recombinant gp41HxB2 (HIV-1 clone HxB2, UniProt P04578 541-682).
T2 construct: domain: gp41
The experiment is described as follows: ELISA on recombinant gp41.

B1: B cell culture supernatant of well 1443 C16 (source of antibody 1443_C16 (PG16) (TCN-116)) (antibody, V domains shown)
VH: QEQLVESGGGVVQPGGSLRLSCLASGFTFHKYGMHWVRQAPGKGLEWVALISDDGMRKYHSDSMWGRVTISRDNSKNTLYLQFSSLKVEDTAMFFCAREAGGPIWHDDVKYYDFNDGYYNYHYMDVWGKGTTVTVSS
VL: QSALTQPASVSGSPGQTITISCNGTSSDVGGFDSVSWYQQSPGKAPKVMVFDVSHRPSGISNRFSGSKSGNTASLTISGLHIEDEGDYFCSSLTDRSHRIFGGGTKVTVL
Consider B1, for which the binding result in experiment [1] is listed as “no binding”.

B2: 1456_P20 (PG20) (antibody, human IgG1, kappa, V domains shown)
VH: QVRLVQSGPEVKKPGSSVTVSCQASGGTFSSYAFTWVRQAPGQGLEWLGMVTPIFGEAKYSQRFEGRVTITADESTSTTSIELRGLTSEDTAIYYCARDRRAVPIATDNWLDPWGQGTLVTVSS
VL: DIQLTQSPSSLSASVGDRVSITCRASQTINNYLNWYQQTPGKAPKLLIYGASNLQNGVPSRFSGSGSGTDFTLTISSLQPEDFATYYCQQSFSTPRTFGQGTRLDIKR
With B2, the “IC50 (µg/mL), pseudovirus neutralization” value in experiment [2] is > 50 µg/mL; in experiment [3], > 50 µg/mL; in [4] it was > 50 µg/mL; in [5], > 50 µg/mL; in experiment [6] it was > 50 µg/mL; in experiment [7] it was 25.8 µg/mL. Further, the “IC50 (µg/mL), pseudovirus neutralization” value in experiment [8], in experiment [9], in experiment [10], in experiment [11], in [12] and in experiment [13] was > 50 µg/mL each time. Also, the “IC50 (µg/mL), pseudovirus neutralization” value in experiment [14] is > 50 µg/mL; in experiment [15] it was > 50 µg/mL; in [16] it was > 50 µg/mL; in [17], > 50 µg/mL; in [18], 50 µg/mL.

B3: B cell culture supernatant of well 1456 P20 (source of antibody 1456_P20 (PG20)) (antibody, V domains shown)
VH: QVRLVQSGPEVKKPGSSVTVSCQASGGTFSSYAFTWVRQAPGQGLEWLGMVTPIFGEAKYSQRFEGRVTITADESTSTTSIELRGLTSEDTAIYYCARDRRAVPIATDNWLDPWGQGTLVTVSS
VL: DIQLTQSPSSLSASVGDRVSITCRASQTINNYLNWYQQTPGKAPKLLIYGASNLQNGVPSRFSGSGSGTDFTLTISSLQPEDFATYYCQQSFSTPRTFGQGTRLDIK
In the case of B3, the binding result in experiment [1] is given as “no binding”.

B4: 1460_G14 (PGG14) (antibody, human IgG1, kappa, V domains shown)
VH: QVLLVQSGTEVKKPGSSVKVSCQASGGAFSSYAFSWVRQAPGQGLEWMGMITPVFGETKYAPRFQGRLTLTAEESLSTTYMELRSLTSDDTAFYYCTRDRRVVPMATDNWLDPWGQGTLVTVSS
VL: DIQLTQSPSSLSASVGDRVTVTCRASQTIHTYLNWYQQIPGKAPKLLIYGASTLQSGVPSRFSGSGSGTDFTLTINSLQPEDFATYYCQQSYSTPRTFGQGTRLDIKR
As to B4, the “IC50 (µg/mL), pseudovirus neutralization” value in experiment [2], in [3], in [4], in experiment [5], in experiment [6] and in [7] was > 50 µg/mL in each case. For the same molecule, the “IC50 (µg/mL), pseudovirus neutralization” value in experiment [8], in experiment [9], in [10], in experiment [11], in experiment [12] and in experiment [13] was > 50 µg/mL in each case. For the same molecule, the “IC50 (µg/mL), pseudovirus neutralization” value in experiment [14], in experiment [15], in experiment [16], in experiment [17] and in [18] was > 50 µg/mL in each case.

B5: 1456_P20 (PG20) (antibody, human IgG1, kappa, V domains shown)
VH: QVRLVQSGPEVKKPGSSVTVSCQASGGTFSSYAFTWVRQAPGQGLEWLGMVTPIFGEAKYSQRFEGRVTITADESTSTTSIELRGLTSEDTAIYYCARDRRAVPIATDNWLDPWGQGTLVTVSS
VL: DIQLTQSPSSLSASVGDRVSITCRASQTINNYLNWYQQTPGKAPKLLIYGASNLQNGVPSRFSGSGSGTDFTLTISSLQPEDFATYYCQQSFSTPRTFGQGTRLDIKR
In the case of B5, the binding result in [19] is reported as “no binding”.

B6: 1495_C14 (PGC14) (antibody, human IgG1, lambda, V domains shown)
VH: DGHLVQSGVEVKKTGATVKISCKVSGYSFIDYYLHWVQRAPGKGLEWVGLIDPENGEARYAEKFQGRVTIIADTSIDTGYMEMRSLKSEDTAVYFCAAGAVGADSGSWFDPWGQGTLVTVSS
VL: SYELTQPPSVSVSPGQTASITCSGSKLGDKYVSWYQLRPGQSPILVMYENDRRPSGIPERFSGSNSGDTATLTISGTQALDEADFYCQAWETTTTTFVFFGGGTQLTVLG
With B6, the “IC50 (µg/mL), pseudovirus neutralization” value was > 50 µg/mL in experiment [2]; 0.64 µg/mL in [3]; > 50 µg/mL in experiment [4]; > 50 µg/mL in experiment [5]; > 50 µg/mL in [6]; 7.41 µg/mL in [7]. For the same molecule, the “IC50 (µg/mL), pseudovirus neutralization” value was > 50 µg/mL in [8]; > 50 µg/mL in experiment [9]; > 50 µg/mL in experiment [10]; 9.5 µg/mL in experiment [11]; > 50 µg/mL in [12]; > 50 µg/mL in experiment [13]. Also, the “IC50 (µg/mL), pseudovirus neutralization” value in [14] is > 50 µg/mL; in experiment [15], > 50 µg/mL; in experiment [16], > 50 µg/mL; in experiment [17] it was > 50 µg/mL; in experiment [18], 28.6 µg/mL.

B7: B cell culture supernatant of well 1495 C14 (source of antibody 1495_C14 (PGC14)) (antibody, V domains shown)
VH: DGHLVQSGVEVKKTGATVKISCKVSGYSFIDYYLHWVQRAPGKGLEWVGLIDPENGEARYAEKFQGRVTIIADTSIDTGYMEMRSLKSEDTAVYFCAAGAVGADSGSWFDPWGQGTLVTVSS
VL: SYELTQPPSVSVSPGQTASITCSGSKLGDKYVSWYQLRPGQSPILVMYENDRRPSGIPERFSGSNSGDTATLTISGTQALDEADFYCQAWETTTTTFVFFGGGTQLTVL
Turning to B7, in experiment [1], the binding result is given as “no binding”.

B8: B cell culture supernatant of well 1460 G14 (source of antibody 1460_G14 (PGG14)) (antibody, V domains shown)
VH: QVLLVQSGTEVKKPGSSVKVSCQASGGAFSSYAFSWVRQAPGQGLEWMGMITPVFGETKYAPRFQGRLTLTAEESLSTTYMELRSLTSDDTAFYYCTRDRRVVPMATDNWLDPWGQGTLVTVSS
VL: DIQLTQSPSSLSASVGDRVTVTCRASQTIHTYLNWYQQIPGKAPKLLIYGASTLQSGVPSRFSGSGSGTDFTLTINSLQPEDFATYYCQQSYSTPRTFGQGTRLDIK
For the molecule B8, the binding result in [1] is “no binding”.

B9: B cell culture supernatant of well 1496 C9 (source of antibody 1496_C09 (PG9) (TCN-109)) (antibody, V domains shown)
VH: QRLVESGGGVVQPGSSLRLSCAASGFDFSRQGMHWVRQAPGQGLEWVAFIKYDGSEKYHADSVWGRLSISRDNSKDTLYLQMNSLRVEDTATYFCVREAGGPDYRNGYNYYDFYDGYYNYHYMDVWGKGTTVTVSS
VL: QSALTQPASVSGSPGQSITISCNGTSNDVGGYESVSWYQQHPGKAPKVVIYDVSKRPSGVSNRFSGSKSGNTASLTISGLQAEDEGDYYCKSLTSTRRRVFGTGTKLTVL
For B9, the binding result in experiment [1] is reported as “no binding”.
